Experimental data taken from the supplement of paper PMC12764529.
± gives the half width of the 95% confidence interval.

Assays:
[1] = folding stability dG unfold (combined trypsin and chymotrypsin); higher = more stable
In short: (§1)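 K50 was inferred by Bayesian fitting of sequencing counts obtained after protease digestion of designed mini-proteins. Unfolding free energy was derived by comparison with a sequence-predicted unfolded-state K50 and a shared folded-state K50, for each protease or both combined. The mini-proteins were under 80 residues, had no cysteine, were carried in a PA-tagged cDNA display construct, and were kept only if AlphaFold2 dimer inter-PAE exceeded 15.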

[2] = folding stability dG unfold from chymotrypsin proteolysis; higher = more stable
In short: as §1

[3] = folding stability dG unfold from trypsin proteolysis; higher = more stable
In short: as §1

Sequence	folding stability dG unfold [1]	folding stability dG unfold [2]	folding stability dG unfold [3]
SAGGSAGGSMRLTVEVSSLEEAEKLAEEIEERFDVEIVRVEVEETEEGGLRVTFDVKLHPDLGSAGGSAGGS [r12_577_TrMRF]	2.82 ± 0.18 kcal/mol	2.94 ± 0.098 kcal/mol	2.96 ± 0.16 kcal/mol
SAGGSAGGSMRTLKARITLRGPDGVEYRFEFEIPAGSAEDVVAFLKNLPVPPGWEVELEVLDESAGGSAGGS [r20_162_TrMRF]	5.44 ± 0.1 kcal/mol	5.54 ± 0.088 kcal/mol	4.42 ± 0.16 kcal/mol
SAGGSAGGSMRVEITEVKEVRGEGGEPRYLVTVRITVPDGKEETFVYEFKTPEELEKLEVELPSAGGSAGGS [r20_130_JUSTAS]	3.13 ± 0.061 kcal/mol	3.37 ± 0.038 kcal/mol	2.55 ± 0.062 kcal/mol
SAGGSAGGSMSKPVKITTTRDPNSNVITIQVESEEDVIEFAKKKGINIKIEPTSENTYKLTLESAGGSAGGS [r12_810_JUSTAS]	0.113 ± 0.21 kcal/mol	-0.0494 ± 0.36 kcal/mol	0.0305 ± 0.079 kcal/mol
SAGGSAGGSMSTTETTVTEVTITVRSDGKVSREVKVTVTTTTTITPAGGTATVTTTTTRTPLESAGGSAGGS [r12_409_JUSTAS]	1.19 ± 0.051 kcal/mol	1.3 ± 0.018 kcal/mol	1.01 ± 0.053 kcal/mol
SAGGSAGGSMSTVSTVTHPDGTPLTVTTTPLPDGTVLATYSAPDGTVVATFDVSTGTTVVVPLSAGGSAGGS [r20_159_JUSTAS]	1.44 ± 0.074 kcal/mol	1.5 ± 0.079 kcal/mol	1.39 ± 0.067 kcal/mol
SAGGSAGGSMTAEEIAEKFPGLPPEQIKNIPIERHPDGYMTVNIEHRGPNGNKQEQQVEIPVDSAGGSAGGS [r12_1050_TrROS]	0.483 ± 0.16 kcal/mol	0.505 ± 0.037 kcal/mol	0.509 ± 0.04 kcal/mol
SAGGSAGGSMTETVEKAPDGTPVLVLKETEESTGDGGKTILRPSTVLLPPGTVLSTEDEVILESAGGSAGGS [r12_581_JUSTAS]	1.52 ± 0.072 kcal/mol	1.83 ± 0.071 kcal/mol	0.944 ± 0.069 kcal/mol
SAGGSAGGSMTFRVEVFNKKTGKVETIEVEGSLDELKALAPPGALVKIEVDGKTITIPAEELKSAGGSAGGS [r20_36_TrROS_Hall]	1.74 ± 0.057 kcal/mol	1.75 ± 0.059 kcal/mol	1.67 ± 0.021 kcal/mol
SAGGSAGGSMTIEEIKKLAEELGIEKVEIEKVKDGYYKIKIYNKKTGKKIEIIIKVNKDGKIVSAGGSAGGS [r12_170_TrROS_Hall]	3.61 ± 0.26 kcal/mol	3.9 ± 0.091 kcal/mol	2.27 ± 0.17 kcal/mol
SAGGSAGGSMTIPESEFKQMSEEELKKLLLENPEPVTVVTSDPEILERIKKIFEKLGIKITLESAGGSAGGS [r12_97_JUSTAS]	2.59 ± 0.14 kcal/mol	2.63 ± 0.12 kcal/mol	2.4 ± 0.11 kcal/mol
SAGGSAGGSMTITVTKVDFPPGLYEGLTIEELRKLLGDENLPIKETPVTVTVTPEKLAALLLSSAGGSAGGS [r12_178_JUSTAS]	1.36 ± 0.096 kcal/mol	0.778 ± 0.08 kcal/mol	1.69 ± 0.036 kcal/mol
SAGGSAGGSMTITYDPVSNTYTVNLSLEGGTKTYTVPSLEALKATLKAEGLPWGPPPITTVSASAGGSAGGS [r12_834_JUSTAS]	4.96 ± 0.079 kcal/mol	5.05 ± 0.063 kcal/mol	3.43 ± 0.08 kcal/mol
SAGGSAGGSMTIVIPKKTLEKMKPETIKKLLELAKELNTTITMNENAITIPVGKGTEEALKALSAGGSAGGS [r12_945_TrMRF]	1.28 ± 0.073 kcal/mol	1.05 ± 0.025 kcal/mol	1.5 ± 0.07 kcal/mol
SAGGSAGGSMTPANVVRIEPSPDGILRVTLTHPDGTVTTVEVSPDNLDIGAPDNVTDVTLAPVSAGGSAGGS [r20_194_TrMRF]	1.44 ± 0.028 kcal/mol	1.72 ± 0.023 kcal/mol	0.932 ± 0.026 kcal/mol
SAGGSAGGSMTTTVERSPSGKTTVTETETRKDAAGNEYTLVTTTTFDPNTTTSTTTTTVVPVSSAGGSAGGS [r12_57_JUSTAS]	1.51 ± 0.086 kcal/mol	1.64 ± 0.048 kcal/mol	1.07 ± 0.062 kcal/mol
SAGGSAGGSMTVTYTEVGDQLVVTTPDGRRYVITLSGDVTYDPATGTVTVPPGETMTPVPVPASAGGSAGGS [r20_158_JUSTAS]	1.99 ± 0.039 kcal/mol	2.13 ± 0.025 kcal/mol	1.61 ± 0.021 kcal/mol
SAGGSAGGSMVEEFLASLPPDATVTVDPSTGVVTVSLPAEGRTLTLTVDTATGTVTETERRPESAGGSAGGS [r12_82_JUSTAS]	1.71 ± 0.027 kcal/mol	1.762 ± 0.0075 kcal/mol	1.56 ± 0.028 kcal/mol

Sequence	folding stability dG unfold [1]	folding stability dG unfold [2]	folding stability dG unfold [3]
SAGGSAGGSMVIRVTVKLPNGEEKVFEIEVSEEELKNMSIEELKKLAEELGLPEDVKIELVPPSAGGSAGGS [r12_742_TrROS_Hall]	3.33 ± 0.19 kcal/mol	3.29 ± 0.17 kcal/mol	3.29 ± 0.12 kcal/mol
SAGGSAGGSMVITVDPSLSPEEAVERAKEEVKKEVPESEPVEVTVVIKDPETGKTTEIPVKLDSAGGSAGGS [r12_1051_JUSTAS]	0.187 ± 0.26 kcal/mol	-1.17 ± 0.23 kcal/mol	0.739 ± 0.047 kcal/mol
SAGGSAGGSMVTIPTGTEEEVEKVIAELEKKGLKPKKVEKEGNKVTVEFPDGTKVELIIEPGKSAGGSAGGS [r20_93_JUSTAS]	1.95 ± 0.099 kcal/mol	2.36 ± 0.14 kcal/mol	1.06 ± 0.058 kcal/mol
SAGGSAGGSMYKVEIEIETSPEGGITIKVTIIPPDGSVIEGNLTPEEVAKRFGFPPPEILELLSAGGSAGGS [r20_235_JUSTAS]	2.48 ± 0.14 kcal/mol	3.03 ± 0.062 kcal/mol	2.21 ± 0.049 kcal/mol
SAGGSAGGSMYVVRAVIRRPKAVPPPLAEEEIDIPVADREITAEEIARLFTPPGYELVRIEADSAGGSAGGS [r12_611_TrMRF]	-0.225 ± 0.14 kcal/mol	-0.36 ± 0.24 kcal/mol	-0.177 ± 0.19 kcal/mol
SAGGSAGGSNEKKYIYRAKITIPGKEGEKPFEIEFESEEEVIELVEKLFPKENIKLEVEKFELDSAGGSAGG [r6_113_TrMRF]	2.33 ± 0.15 kcal/mol	2.51 ± 0.12 kcal/mol	1.83 ± 0.1 kcal/mol
SAGGSAGGSNELLKKLGLKPDQTILVLARPGEIEKLRKEKPIKRIEVTPLPDDLYLYRIEVEGSAGGSAGGS [r12_750_TrMRF]	0.192 ± 0.19 kcal/mol	0.095 ± 0.38 kcal/mol	-0.0878 ± 0.16 kcal/mol
SAGGSAGGSNKLVKELAKDPNIKSIFVDTKNKKVYILTDNYLIVIDKNGKIEKIEPISPEKLKSAGGSAGGS [r12_895_TrMRF]	1.16 ± 0.17 kcal/mol	1.26 ± 0.15 kcal/mol	0.446 ± 0.098 kcal/mol
SAGGSAGGSNLPAGQEIWFPIEIRIEMEMPVRDNGEPIWRMRMTMEHTIMLSIKVKPASPEDASAGGSAGGS [r20_14_TrROS]	4.88 ± 0.43 kcal/mol	5.11 ± 0.38 kcal/mol	3.75 ± 0.31 kcal/mol
SAGGSAGGSNPRYRIVLPISREQLEELGLTPEQVAEAIREAFPSLSPDTRFYFPEDGNLVVVGSAGGSAGGS [r12_50_TrMRF]	1.4 ± 0.026 kcal/mol	1.16 ± 0.012 kcal/mol	1.58 ± 0.024 kcal/mol
SAGGSAGGSNWVEIDIPHDDGRDIKITMWPDGYMQIEYPNGKPVYEIPVPPNMSIDEIAERILSAGGSAGGS [r12_990_TrROS]	0.624 ± 0.15 kcal/mol	0.498 ± 0.067 kcal/mol	0.641 ± 0.045 kcal/mol
SAGGSAGGSPDVVVPATLTFPLDAVAKAEFYPDGTVKVTFPDNTVALAKVEGGVVTDVRLAPASAGGSAGGS [r12_749_TrMRF]	0.11 ± 0.095 kcal/mol	0.0478 ± 0.066 kcal/mol	0.0343 ± 0.031 kcal/mol
SAGGSAGGSPELKISFPGFEGAEVELDPETNIATVRVKLPDKELELKVRIDDDGITIVEVREVSAGGSAGGS [r20_60_TrMRF]	1.94 ± 0.14 kcal/mol	1.86 ± 0.054 kcal/mol	1.95 ± 0.07 kcal/mol
SAGGSAGGSPETLTITVKEKPVRIEINGKVIEVKPGDTITIPKELANNIRIEVNEDGSITITPSAGGSAGGS [r20_150_TrROS_Hall]	1.6 ± 0.19 kcal/mol	1.24 ± 0.11 kcal/mol	1.92 ± 0.2 kcal/mol
SAGGSAGGSPETVTLTLTVTVKTVTLDPETGELTTTTHTVTLTLTLSKEDLEALLKSPELKKLSAGGSAGGS [r12_1015_TrROS_Hall]	2.76 ± 0.17 kcal/mol	3.09 ± 0.067 kcal/mol	1.84 ± 0.05 kcal/mol
SAGGSAGGSPGFIIRVRTWERDPKDGKWKPKRERPLTFPPDDADDFADKLNSESPNVEVEIMPSAGGSAGGS [r12_342_TrROS]	-0.0797 ± 0.15 kcal/mol	-0.259 ± 0.25 kcal/mol	-0.0285 ± 0.15 kcal/mol
SAGGSAGGSPGKPKTIPVEMVFFNPEDGYFFEMRSEIYVPPDGNLQIDISIELYPVPPNAPLISAGGSAGGS [r12_116_TrROS]	1.84 ± 0.18 kcal/mol	1.46 ± 0.039 kcal/mol	2.33 ± 0.2 kcal/mol
SAGGSAGGSPIVVDSPEDIEKAIEEAIASGAKSIVEVGPNRVRVVFVIPGEPKVFVLELPLNGSAGGSAGGS [r12_368_TrMRF]	1.79 ± 0.11 kcal/mol	1.93 ± 0.092 kcal/mol	1.42 ± 0.051 kcal/mol
